Experimental data from paper PMC2156119 (The Journal of Cell Biology, 1999).
Where two headings read alike, the source gives them in different places.

How the values were obtained:
[1] = target: T1, tubulin heterodimer (bovine tubulin) (bovine, UniProt Q6B856 1-445); test: pull-down
[2] = target: T1, tubulin heterodimer (bovine tubulin); test: pull-down; remark: listed apart in the source

koff [1]: 0.01 s⁻¹ | koff [2]: 0.0025 s⁻¹
B1: Op18-wt-F (oncoprotein 18/stathmin, wild type, COOH-terminal Flag epitope) (natural protein, human, UniProt P16949 1-149, looked up)
chain: MASSDIQVKELEKRASGQAFELILSPRSKESVPEFPLSPPKKKDLSLEEIQKKLEAAEERRKSHEAEVLKQLAEKREHEKEVLQKAIEENNNFSKMAEEKLTHKMEANKENREAQMAAKLERLREKDKHIEEVRKNKESKDPADETEAD
